This series addresses oestrogen receptor (ER), recombinant human (human, UniProt P03372 1-595). Briefly: EMSA; 10 nM oestradiol; supershifted by anti-ER HC-20; 20 mM HEPES pH 7.9, 60 mM KCl, 5 mM MgCl2, 2 mM DTT, 10% glycerol, 100 ug (unit prefix not given) BSA, 380 fmol ER, 6 ng ERE, 20 ul; 20 C 20 min then 37 C 15 min; 4% native PAGE in 90 mM Tris-borate, 2.5 mM EDTA pH 8.3. The note with it: protein: commercial; label: 32P end label (T4 PNK); (only one strand printed, described as complementary strands, 27 bp). On the technique in general: A gel shift assay detects complexes by their altered migration in electrophoresis.

Sequence of oestrogen receptor (ER), recombinant human (P03372 whole entry): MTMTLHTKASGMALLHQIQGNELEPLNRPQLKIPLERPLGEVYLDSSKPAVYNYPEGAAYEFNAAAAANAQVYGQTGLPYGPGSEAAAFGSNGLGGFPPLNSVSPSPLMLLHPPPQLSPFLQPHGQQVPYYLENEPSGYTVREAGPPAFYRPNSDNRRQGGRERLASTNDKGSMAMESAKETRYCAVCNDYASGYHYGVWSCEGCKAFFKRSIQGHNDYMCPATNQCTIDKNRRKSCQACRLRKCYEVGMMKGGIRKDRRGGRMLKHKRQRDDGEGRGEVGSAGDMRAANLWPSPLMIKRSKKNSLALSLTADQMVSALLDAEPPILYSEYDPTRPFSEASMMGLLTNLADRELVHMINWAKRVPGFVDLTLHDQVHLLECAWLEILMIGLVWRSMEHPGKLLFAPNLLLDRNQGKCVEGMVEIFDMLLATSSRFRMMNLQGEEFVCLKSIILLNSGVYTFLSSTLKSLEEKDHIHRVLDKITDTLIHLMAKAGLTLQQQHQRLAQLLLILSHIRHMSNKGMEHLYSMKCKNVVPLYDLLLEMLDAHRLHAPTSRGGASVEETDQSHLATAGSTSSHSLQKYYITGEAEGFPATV

B1: consensus ERE 27 bp (dsDNA)
DNA 1: GATCCAGGTCACAGTGACCTGGGCCCG
DNA 2: CGGGCCCAGGTCACTGTGACCTGGATC
Regarding B1, the binding result is recorded as “binds”.

The values above are taken from article PMC2362355, “The two phyto-oestrogens genistein and quercetin exert different effects on oestrogen receptor function”.
